According to US20250326792A1, “A FORMULATION FOR TREATMENT OF PIGMENTARY DISORDERS” (priority 2022, published 2025):
PHPP = 3-Phenylpyrazolo[3,4-d]pyrimidine (N-terminal cap)

Assays:
[1] = Stability of IS103 API, long term (Condition 2, −20±5° C.); type: physicochemical; conditions: for Internal change in attributes: Appearance / Internal change in attributes: Clarity of solution / Internal change in attributes: Color / Internal change in attributes: Color of solution / Internal change in attributes: Odor / API calculated on the anhydrous basis / Appearance white to off white amorphous powder / Related substances (By HPLC) Any Max Impurity / Related substances (By HPLC) Total Impurity / Solubility Sparingly soluble in water / Water Content (By Karl Fischer-Titrator): −20±5° C.
Description: The purpose of stability testing is to provide evidence on how the quality of a drug substance or drug product varies with time under the influence of a variety of environmental factors such as temperature, humidity, etc. and to establish a re-test period for the drug substance or a shelf life for the drug product and recommended storage conditions. The study was conducted according to the WHO and schedule-Y guidelines.
The IS103 API is a lyophilized white fluffy powder, and it was filled at sterile condition in glass injection vial which has airlock-rubber capping. This container closure system is same as or simulates the packaging proposed for storage and distribution.
The following test attributes have been selected according to the above said guidelines: • appearance; odour; colour; colour of solution (when IS103 API is soluble in solvent); clarity of solution; degradation and assessment of container closure system.
Testing frequency for long term studies have been designed as per schedule Y. The long-term stability studies have been conducted on 1, 3, 6, 9, 12, 18, 24 and 36 months.
The studies were conducted under appropriate storage conditions (with appropriate tolerances) that test IS103 API thermal stability and its sensitivity to moisture. The IS103 API is intended for storage for 36 months. Accordingly, long term stability studies were done for 36 months. The details of the storage conditions have been furnished hereunder.

[2] = test system: Tyrosinase; assay: Tyrosinase activity assay (L-DOPA) in NHEM cells; type: cell-based, Human; conditions: for % increase in tyrosinase activity compared to control / Tyrosinase activity: TYROSINASE ACTIVITY table
Description: Culture and maintenance of cell lines: B16F10 cells were cultured in RPMI containing 10% fetal bovine serum, 100 units per millilitre (U/mL) penicillin, 0.1 mg/mL streptomycin, and 0.25 microgram per millilitre (μg/mL) amphotericin B at 37 degrees Celsius in a humidified 95% air/5% CO2 incubator. Drug treatment was done 24 hours after seeding. Cells were harvested 48 hours later and melanin content and tyrosinase activity determined in triplicate. NHEM cells were cultured in DMEM containing 10% fetal bovine serum, 100 units per milliliter (U/mL) penicillin, 0.1 mg/mL streptomycin, and 0.25 microgram per millilitre (μg/mL) amphotericin B at 37 degrees Celsius in a humidified 95% air/5% CO2 incubator. Drug treatment was done 24 hours after seeding. Cells were harvested 48 hours later and melanin content and tyrosinase activity determined in triplicate.
IS103 was dissolved in water for injection or DMSO to prepare stock solution of about 50 mg/ml. The stock solution was used for preparation of subsequent dilutions in solvent to achieve working dilutions for treatment ranging 0.1 μg/ml to 1000 μg/ml.
Tyrosinase activity was determined using L-DOPA as a substrate. Briefly, B16F10 and NHEM cells were seeded in a 6-well plate (2×10^4 cells/well) and incubated for overnight. The cells were then treated with or without the test compounds for 46 hours and were washed twice with ice cold PBS and extracted by sonication in 100 μl of 0.1M Tris-HCl buffer (pH 7.2) containing 1% Nonidet P-40, 0.01% SDS, 100 μM phenyl methyl sulfonyl fluoride, and 1 μg/ml aprotinin and then centrifuged at 10,000 g for about 10 minutes at 4° C. The supernatants collected were used for enzyme assay and its protein content was estimated by method of Bradford using BSA as standard. Samples of cell extract supernatant were incubated in duplicate for 1 hour at 37° C. in 1 ml of 0.1M sodium phosphate buffer (pH 7.4) containing 0.1% L-DOPA. The absorbance was then monitored at 450 nm and compared with purified mushroom tyrosinase (Sigma). The standard curve was prepared limiting linearity within the range of experimental value.

With “PHPP-Tyr-Arg-Ser-Arg-Lys-Tyr-Ser-Ser-Trp-Tyr-NH2 ({PHPP}-YRSRKYSSWY-NH2) [IS103]” the “found to be stable for” value ([1]; long term stability condition (of −20±5° C.)) was 36 months, the “Internal change in attributes: Appearance” value (from here on “Internal change … Appearance”) ([1]; 1st month) was “No change” and the “Internal change in attributes: Clarity of solution” value ([1]; 1st month) was “No change”. For the same substance, the “Internal change in attributes: Color” value ([1]; 1st month) was “No change”, the “Internal change in attributes: Color of solution” value ([1]; 1st month) was “No change” and the “Internal change in attributes: Odor” value ([1]; 1st month) was “No change”. For the same substance, the “API calculated on the anhydrous basis” value ([1]; 3 M) was 99.51%, the “Appearance white to off white amorphous powder” value (“Appearance white” for short) ([1]; 3 M) was “White” and the “Related substances (By HPLC) Any Max Impurity” value ([1]; 3 M) was 0.22%. For the same substance, the “Related substances (By HPLC) Total Impurity” value ([1]; 3 M) was 0.37%, the “Solubility Sparingly soluble in water” value ([1]; 3 M) was “Complies” and the “Water Content (By Karl Fischer-Titrator)” value ([1]; 3 M) was 4.06% w/w. The “Internal change … Appearance” value ([1]; 3rd month) was “No change”, the “Internal change in attributes: Clarity of solution” value ([1]; 3rd month) was “No change” and the “Internal change in attributes: Color” value ([1]; 3rd month) was “No change”. For the same substance, the “Internal change in attributes: Color of solution” value ([1]; 3rd month) was “No change”, the “Internal change in attributes: Odor” value ([1]; 3rd month) was “No change” and the “API calculated on the anhydrous basis” value ([1]; 12 M) was 99.11%. For the same substance, the “Appearance white” value ([1]; 12 M) was “White”, the “Related substances (By HPLC) Any Max Impurity” value ([1]; 12 M) was 0.36% and the “Related substances (By HPLC) Total Impurity” value ([1]; 12 M) was 0.44%. For the same substance, the “Solubility Sparingly soluble in water” value ([1]; 12 M) was “Complies”, the “Water Content (By Karl Fischer-Titrator)” value ([1]; 12 M) was 4.45% w/w and the “Internal change … Appearance” value ([1]; 12th month) was “No change”. The “Internal change in attributes: Clarity of solution” value ([1]; 12th month) was “No change”, the “Internal change in attributes: Color” value ([1]; 12th month) was “No change” and the “Internal change in attributes: Color of solution” value ([1]; 12th month) was “No change”. For the same substance, the “Internal change in attributes: Odor” value ([1]; 12th month) was “No change”, the “API calculated on the anhydrous basis” value ([1]; 18 M) was 99.03% and the “Appearance white” value ([1]; 18 M) was “White”. The “Related substances (By HPLC) Any Max Impurity” value ([1]; 18 M) was 0.62%, the “Related substances (By HPLC) Total Impurity” value ([1]; 18 M) was 0.62% and the “Solubility Sparingly soluble in water” value ([1]; 18 M) was “Complies”. For the same substance, the “Water Content (By Karl Fischer-Titrator)” value ([1]; 18 M) was 4.54% w/w, the “Internal change … Appearance” value ([1]; 18th month) was “No change” and the “Internal change in attributes: Clarity of solution” value ([1]; 18th month) was “No change”. For the same substance, the “Internal change in attributes: Color” value ([1]; 18th month) was “No change”, the “Internal change in attributes: Color of solution” value ([1]; 18th month) was “No change” and the “Internal change in attributes: Odor” value ([1]; 18th month) was “No change”. For the same substance, the “API calculated on the anhydrous basis” value ([1]; 24 M) was 98.95%, the “Appearance white” value ([1]; 24 M) was “White” and the “Related substances (By HPLC) Any Max Impurity” value ([1]; 24 M) was 0.60%. The “Related substances (By HPLC) Total Impurity” value ([1]; 24 M) was 0.82%, the “Solubility Sparingly soluble in water” value ([1]; 24 M) was “Complies” and the “Water Content (By Karl Fischer-Titrator)” value ([1]; 24 M) was 4.61% w/w. For the same substance, the “Internal change … Appearance” value ([1]; 24th month) was “No change”, the “Internal change in attributes: Clarity of solution” value ([1]; 24th month) was “No change” and the “Internal change in attributes: Color” value ([1]; 24th month) was “No change”. For the same substance, the “Internal change in attributes: Color of solution” value ([1]; 24th month) was “No change”, the “Internal change in attributes: Odor” value ([1]; 24th month) was “No change” and the “API calculated on the anhydrous basis” value ([1]; 36 M) was 98.73%. For the same substance, the “Appearance white” value ([1]; 36 M) was “White”, the “Related substances (By HPLC) Any Max Impurity” value ([1]; 36 M) was 0.84% and the “Related substances (By HPLC) Total Impurity” value ([1]; 36 M) was 0.97%. The “Solubility Sparingly soluble in water” value ([1]; 36 M) was “Complies”, the “Water Content (By Karl Fischer-Titrator)” value ([1]; 36 M) was 4.56% w/w and the “Internal change … Appearance” value ([1]; 36th month) was “No change”. The “Internal change in attributes: Clarity of solution” value ([1]; 36th month) was “No change”, the “Internal change in attributes: Color” value ([1]; 36th month) was “No change” and the “Internal change in attributes: Color of solution” value ([1]; 36th month) was “No change”. The “Internal change in attributes: Odor” value ([1]; 36th month) was “No change”, the “API calculated on the anhydrous basis” value ([1]; Initial) was 99.73% and the “Appearance white” value ([1]; Initial) was “White”. The “Related substances (By HPLC) Any Max Impurity” value ([1]; Initial) was 0.14%, the “Related substances (By HPLC) Total Impurity” value ([1]; Initial) was 0.32% and the “Solubility Sparingly soluble in water” value ([1]; Initial) was “Complies”. For the same substance, the “Water Content (By Karl Fischer-Titrator)” value ([1]; Initial) was 3.91% w/w, the “increase in Tyrosinase activity when compared to control” value ([2]; NHEM CELLS, 250 μg/mL) was 55.67% and the “effect on tyrosinase activity (FIG. 7)” value ([2]; NHEM cells, different concentrations, about 48 hours) was “increased tyrosinase activity”. The “% increase in tyrosinase activity compared to control” value (“% increase in tyrosinase activity” below) ([2]; NHEM CELLS, 0.1 μg/mL) was −0.67%, the Tyrosinase activity ([2]; NHEM CELLS, 0.1 μg/mL) was 13.7 ± 1.24 and the “% increase in tyrosinase activity” value ([2]; NHEM CELLS, 1 μg/mL) was 3.67%. The Tyrosinase activity ([2]; NHEM CELLS, 1 μg/mL) was 18.0 ± 3.30, the “% increase in tyrosinase activity” value ([2]; NHEM CELLS, 10 μg/mL) was 10.67% and the Tyrosinase activity ([2]; NHEM CELLS, 10 μg/mL) was 25.0 ± 0.80. For the same substance, the “% increase in tyrosinase activity” value ([2]; NHEM CELLS, 50 μg/mL) was 22.67%, the Tyrosinase activity ([2]; NHEM CELLS, 50 μg/mL) was 37.0 ± 3.00 and the “% increase in tyrosinase activity” value ([2]; NHEM CELLS, 100 μg/mL) was 45.33%. The Tyrosinase activity ([2]; NHEM CELLS, 100 μg/mL) was 59.7 ± 1.90, the “% increase in tyrosinase activity” value ([2]; NHEM CELLS, 250 μg/mL) was 55.67% and the Tyrosinase activity ([2]; NHEM CELLS, 250 μg/mL) was 70.0 ± 2.20. For the same substance, the “% increase in tyrosinase activity” value ([2]; NHEM CELLS, 500 μg/mL) was 61%, the Tyrosinase activity ([2]; NHEM CELLS, 500 μg/mL) was 75.3 ± 2.50 and the “% increase in tyrosinase activity” value ([2]; NHEM CELLS, 1000 μg/mL) was 61%. It also gave a Tyrosinase activity ([2]; NHEM CELLS, 1000 μg/mL) of 75.3 ± 2.60.
